The values that follow come from the Human Domainome abundance scans (Beltran et al. 2025).

The labels stand for the following.
B1: Tumor protein p73, residues 487 to 549; numbered along this chain, O15350 (parent)
chain: YHADPSLVSFLTGLGCPNCIEYFTSQGLQSIYHLQNLTIEDLGALKIPEQYRMTIWRGLQDLK

± gives the uncertainty stated by the source.

The variants in this data set derive from B1. In words: abundance fitness (aPCA) (normalised: wild type 0, dead -1); higher = more abundant; growth selection in yeast, the domain comes from the species named. As to conditions: Homo sapiens.
In the case of YHADPSLVSFLTGLGCPNCAEYFTSQGLQSIYHLQNLTIEDLGALKIPEQYRMTIWRGLQDLK [I20A], the abundance fitness is -0.061 ± 0.042.
For the variant YHADPSLVSFLTGLGCPNCPEYFTSQGLQSIYHLQNLTIEDLGALKIPEQYRMTIWRGLQDLK [I20P], the abundance fitness is -0.626 ± 0.056.
In the case of YHADPSLVSFLTGLGCPNCKEYFTSQGLQSIYHLQNLTIEDLGALKIPEQYRMTIWRGLQDLK [I20K], the abundance fitness is -0.185 ± 0.05.
Next, YHADPSLVSFLTGLGCPNCFEYFTSQGLQSIYHLQNLTIEDLGALKIPEQYRMTIWRGLQDLK [I20F]: -0.257 ± 0.052; YHADPSLVSFLTGLGCPNCHEYFTSQGLQSIYHLQNLTIEDLGALKIPEQYRMTIWRGLQDLK [I20H]: -0.069 ± 0.044.
For the variant YHADPSLVSFLTGLGCPNCVEYFTSQGLQSIYHLQNLTIEDLGALKIPEQYRMTIWRGLQDLK [I20V], the abundance fitness came to 0.009 ± 0.029.
The same measure for YHADPSLVSFLTGLGCPNCYEYFTSQGLQSIYHLQNLTIEDLGALKIPEQYRMTIWRGLQDLK [I20Y]: -0.1 ± 0.038.
Regarding YHADPSLVSFLTGLGCPNCGEYFTSQGLQSIYHLQNLTIEDLGALKIPEQYRMTIWRGLQDLK [I20G], the abundance fitness is -0.269 ± 0.036.
As for YHADPSLVSFLTGLGCPNCLEYFTSQGLQSIYHLQNLTIEDLGALKIPEQYRMTIWRGLQDLK [I20L], the abundance fitness is 0.038 ± 0.031.
Next, YHADPSLVSFLTGLGCPNCEEYFTSQGLQSIYHLQNLTIEDLGALKIPEQYRMTIWRGLQDLK [I20E]: -0.057 ± 0.047; YHADPSLVSFLTGLGCPMCIEYFTSQGLQSIYHLQNLTIEDLGALKIPEQYRMTIWRGLQDLK [N18M]: -0.163 ± 0.047; YHADPSLVSFLTGLGCPVCIEYFTSQGLQSIYHLQNLTIEDLGALKIPEQYRMTIWRGLQDLK [N18V]: -0.055 ± 0.043.
The same measure for YHADPSLVSFLTGLGCPDCIEYFTSQGLQSIYHLQNLTIEDLGALKIPEQYRMTIWRGLQDLK [N18D]: 0.049 ± 0.067; for YHADPSLVSFLTGLGCPICIEYFTSQGLQSIYHLQNLTIEDLGALKIPEQYRMTIWRGLQDLK [N18I]: 0.005 ± 0.079.
Regarding YHADPSLVSFLTGLGCPHCIEYFTSQGLQSIYHLQNLTIEDLGALKIPEQYRMTIWRGLQDLK [N18H], the abundance fitness worked out at 0.04 ± 0.082.
In the case of YHADPSLVSFLTGLGCPYCIEYFTSQGLQSIYHLQNLTIEDLGALKIPEQYRMTIWRGLQDLK [N18Y], the abundance fitness was -0.167 ± 0.062.
For the variant YHADPSLVSFLTGLGCPPCIEYFTSQGLQSIYHLQNLTIEDLGALKIPEQYRMTIWRGLQDLK [N18P], the abundance fitness is -0.288 ± 0.053.
Next, YHADPSLVSFLTGLGCPQCIEYFTSQGLQSIYHLQNLTIEDLGALKIPEQYRMTIWRGLQDLK [N18Q]: -0.03 ± 0.037.
YHADPSLVSFLTGLGCPECIEYFTSQGLQSIYHLQNLTIEDLGALKIPEQYRMTIWRGLQDLK [N18E]: the abundance fitness is 0.033 ± 0.042.
YHADPSLVSFLTGLGCPACIEYFTSQGLQSIYHLQNLTIEDLGALKIPEQYRMTIWRGLQDLK [N18A]: the abundance fitness amounted to 0.042 ± 0.038.
Take YHADPSLVSFLTGLGCPTCIEYFTSQGLQSIYHLQNLTIEDLGALKIPEQYRMTIWRGLQDLK [N18T]: the abundance fitness was -0.084 ± 0.042.
As for YHADPSLVSFLTGLGCPLCIEYFTSQGLQSIYHLQNLTIEDLGALKIPEQYRMTIWRGLQDLK [N18L], the abundance fitness is -0.139 ± 0.035.
As to YHADPSLVSFLTGLGCPCCIEYFTSQGLQSIYHLQNLTIEDLGALKIPEQYRMTIWRGLQDLK [N18C], the abundance fitness was -0.125 ± 0.095.
On to YHADPSLVSFLTGLGCPGCIEYFTSQGLQSIYHLQNLTIEDLGALKIPEQYRMTIWRGLQDLK [N18G], for which the abundance fitness worked out at 0.061 ± 0.039.
The same measure for YHADPSLVSFLTGLGCPSCIEYFTSQGLQSIYHLQNLTIEDLGALKIPEQYRMTIWRGLQDLK [N18S]: -0.12 ± 0.042.
For YHADPSLVSFLTGLGCPKCIEYFTSQGLQSIYHLQNLTIEDLGALKIPEQYRMTIWRGLQDLK [N18K], the abundance fitness is -0.163 ± 0.045.
Next, YHADPSLVSFLTGLGCPNMIEYFTSQGLQSIYHLQNLTIEDLGALKIPEQYRMTIWRGLQDLK [C19M]: 0.048 ± 0.036; YHADPSLVSFLTGLGCPNRIEYFTSQGLQSIYHLQNLTIEDLGALKIPEQYRMTIWRGLQDLK [C19R]: -0.941 ± 0.06; YHADPSLVSFLTGLGCPNQIEYFTSQGLQSIYHLQNLTIEDLGALKIPEQYRMTIWRGLQDLK [C19Q]: 0.028 ± 0.056.
On to YHADPSLVSFLTGLGCPNFIEYFTSQGLQSIYHLQNLTIEDLGALKIPEQYRMTIWRGLQDLK [C19F], for which the abundance fitness was determined as 0.031 ± 0.13.
For YHADPSLVSFLTGLGCPNPIEYFTSQGLQSIYHLQNLTIEDLGALKIPEQYRMTIWRGLQDLK [C19P], the abundance fitness is -0.97 ± 0.12.
With YHADPSLVSFLTGLGCPNDIEYFTSQGLQSIYHLQNLTIEDLGALKIPEQYRMTIWRGLQDLK [C19D], the abundance fitness is -0.699 ± 0.18.
Turning to YHADPSLVSFLTGLGCPNAIEYFTSQGLQSIYHLQNLTIEDLGALKIPEQYRMTIWRGLQDLK [C19A], the abundance fitness was -0.033 ± 0.042.
Next, YHADPSLVSFLTGLGCPNWIEYFTSQGLQSIYHLQNLTIEDLGALKIPEQYRMTIWRGLQDLK [C19W]: -0.454 ± 0.065; YHADPSLVSFLTGLGCPNEIEYFTSQGLQSIYHLQNLTIEDLGALKIPEQYRMTIWRGLQDLK [C19E]: -0.236 ± 0.058; YHADPSLVSFLTGLGCPNNIEYFTSQGLQSIYHLQNLTIEDLGALKIPEQYRMTIWRGLQDLK [C19N]: -0.511 ± 0.13.
With YHADPSLVSFLTGLGCPNIIEYFTSQGLQSIYHLQNLTIEDLGALKIPEQYRMTIWRGLQDLK [C19I], the abundance fitness was -0.055 ± 0.09.
Next, YHADPSLVSFLTGLGCPNLIEYFTSQGLQSIYHLQNLTIEDLGALKIPEQYRMTIWRGLQDLK [C19L]: 0.047 ± 0.035.
For YHADPSLVSFLTGLGCPNHIEYFTSQGLQSIYHLQNLTIEDLGALKIPEQYRMTIWRGLQDLK [C19H], the abundance fitness is -0.399 ± 0.077.
Regarding YHADPSLVSFLTGLGCPNVIEYFTSQGLQSIYHLQNLTIEDLGALKIPEQYRMTIWRGLQDLK [C19V], the abundance fitness came to 0.052 ± 0.036.
In the case of YHADPSLVSFLTGLGCPNKIEYFTSQGLQSIYHLQNLTIEDLGALKIPEQYRMTIWRGLQDLK [C19K], the abundance fitness was -0.726 ± 0.088.
For the variant YHADPSLVSFLTGLGCPNGIEYFTSQGLQSIYHLQNLTIEDLGALKIPEQYRMTIWRGLQDLK [C19G], the abundance fitness was -0.559 ± 0.049.
Take YHADPSLVSFLTGLGCPNYIEYFTSQGLQSIYHLQNLTIEDLGALKIPEQYRMTIWRGLQDLK [C19Y]: the abundance fitness is -0.233 ± 0.1.
